# Results as given in IntAct's records for PubMed 31515488.
# B1: EF-hand domain-containing protein 1 (Homo sapiens), Q5JVL4 (parent)
# chain: MVSNPVHGLPFLPGTSFKDSTKTAFHRSQTLSYRNGYAIVRRPTVGIGGDRLQFNQLSQAELDELASKAPVLTYGQPKQAPPADFIPAHVAFDKKVLKFDAYFQEDVPMSTEEQYRIRQVNIYYYLEDDSMSVIEPVVENSGILQGKLIKRQRLAKNDRGDHYHWKDLNRGINITIYGKTFRVVDCDQFTQVFLESQGIELNPPEKMALDPYTELRKQPLRKYVTPSDFDQLKQFLTFDKQVLRFYAIWDDTDSMYGECRTYIIHYYLMDDTVEIREVHERNDGRDPFPLLMNRQRVPKVLVENAKNFPQCVLEISDQEVLEWYTAKDFIVGKSLTILGRTFFIYDCDPFTRRYYKEKFGITDLPRIDVSKREPPPVKQELPPYNGFGLVEDSAQNCFALIPKAPKKDVIKMLVNDNKVLRYLAVLESPIPEDKDRRFVFSYFLATDMISIFEPPVRNSGIIGGKYLGRTKVVKPYSTVDNPVYYGPSDFFIGAVIEVFGHRFIILDTDEYVLKYMESNAAQYSPEALASIQNHVRKREAPAPEAESKQTEKDPGVQELEALIDTIQKQLKDHSCKDNIREAFQIYDKEASGYVDRDMFFKICESLNVPVDDSLVKELIRMCSHGEGKINYYNFVRAFSN
# partner: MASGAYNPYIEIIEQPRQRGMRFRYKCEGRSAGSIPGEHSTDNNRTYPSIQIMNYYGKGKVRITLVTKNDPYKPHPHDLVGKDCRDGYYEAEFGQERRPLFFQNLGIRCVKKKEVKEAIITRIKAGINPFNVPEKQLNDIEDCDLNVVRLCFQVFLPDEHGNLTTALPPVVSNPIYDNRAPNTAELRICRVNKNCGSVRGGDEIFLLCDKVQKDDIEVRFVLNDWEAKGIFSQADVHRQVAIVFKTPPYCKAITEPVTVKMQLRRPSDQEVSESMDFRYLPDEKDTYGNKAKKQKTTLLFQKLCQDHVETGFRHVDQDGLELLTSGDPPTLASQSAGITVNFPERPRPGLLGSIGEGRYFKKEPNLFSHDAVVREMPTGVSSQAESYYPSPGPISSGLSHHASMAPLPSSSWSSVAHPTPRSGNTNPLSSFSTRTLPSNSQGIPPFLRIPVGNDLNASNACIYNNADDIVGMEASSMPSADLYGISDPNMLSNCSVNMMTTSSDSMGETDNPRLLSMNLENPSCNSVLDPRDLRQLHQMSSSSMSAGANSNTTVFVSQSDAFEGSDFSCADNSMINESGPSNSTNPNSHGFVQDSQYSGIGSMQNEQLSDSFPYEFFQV
# B2: Kelch-like protein 40 (Homo sapiens), Q2TBA0 (parent)
# chain: MALGLEQAEEQRLYQQTLLQDGLKDMLDHGKFLDCVVRAGEREFPCHRLVLAACSPYFRARFLAEPERAGELHLEEVSPDVVAQVLHYLYTSEIALDEASVQDLFAAAHRFQIPSIFTICVSFLQKRLCLSNCLAVFRLGLLLDCARLAVAARDFICAHFTLVARDADFLGLSADELIAIISSDGLNVEKEEAVFEAVMRWAGSGDAEAQAERQRALPTVFESVRCRLLPRAFLESRVERHPLVRAQPELLRKVQMVKDAHEGRITTLRKKKKGKDGAGAKEADKGTSKAKAEEDEEAERILPGILNDTLRFGMFLQDLIFMISEEGAVAYDPAANECYCASLSNQVPKNHVSLVTKENQVFVAGGLFYNEDNKEDPMSAYFLQFDHLDSEWLGMPPLPSPRCLFGLGEALNSIYVVGGREIKDGERCLDSVMCYDRLSFKWGESDPLPYVVYGHTVLSHMDLVYVIGGKGSDRKCLNKMCVYDPKKFEWKELAPMQTARSLFGATVHDGRIIVAAGVTDTGLTSSAEVYSITDNKWAPFEAFPQERSSLSLVSLVGTLYAIGGFATLETESGELVPTELNDIWRYNEEEKKWEGVLREIAYAAGATFLPVRLNVLCLTKM
# B3: G patch domain and ankyrin repeat-containing protein 1 (Homo sapiens), O95872 (parent)
# chain: MSRPLLITFTPATDPSDLWKDGQQQPQPEKPESTLDGAAARAFYEALIGDESSAPDSQRSQTEPARERKRKKRRIMKAPAAEAVAEGASGRHGQGRSLEAEDKMTHRILRAAQEGDLPELRRLLEPHEAGGAGGNINARDAFWWTPLMCAARAGQGAAVSYLLGRGAAWVGVCELSGRDAAQLAEEAGFPEVARMVRESHGETRSPENRSPTPSLQYCENCDTHFQDSNHRTSTAHLLSLSQGPQPPNLPLGVPISSPGFKLLLRGGWEPGMGLGPRGEGRANPIPTVLKRDQEGLGYRSAPQPRVTHFPAWDTRAVAGRERPPRVATLSWREERRREEKDRAWERDLRTYMNLEF
# partner: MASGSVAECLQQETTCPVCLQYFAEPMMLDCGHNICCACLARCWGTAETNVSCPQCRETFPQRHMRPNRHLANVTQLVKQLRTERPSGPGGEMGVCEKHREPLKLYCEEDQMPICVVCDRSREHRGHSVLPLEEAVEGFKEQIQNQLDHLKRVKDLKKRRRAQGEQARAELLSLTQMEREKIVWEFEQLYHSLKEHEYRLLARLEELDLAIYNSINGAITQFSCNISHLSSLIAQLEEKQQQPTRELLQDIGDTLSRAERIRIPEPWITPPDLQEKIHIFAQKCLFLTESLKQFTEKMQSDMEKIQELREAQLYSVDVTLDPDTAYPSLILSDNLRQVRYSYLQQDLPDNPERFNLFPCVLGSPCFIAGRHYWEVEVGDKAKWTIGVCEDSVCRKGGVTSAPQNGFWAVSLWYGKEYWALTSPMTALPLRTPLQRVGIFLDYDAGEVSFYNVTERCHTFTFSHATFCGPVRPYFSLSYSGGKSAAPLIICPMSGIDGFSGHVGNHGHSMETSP
# B4: Microtubule-associated tumor suppressor candidate 2 (Homo sapiens), Q5JR59-3 (parent)
# chain: MGHCCCKPYNCLQCLDKTNESALVKEKELSIELANIRDEVAFHTAKCEKLQKEKEELERRFEDEVKRLGWQQQAELQELEERLQLQFEAEMARLQEEHGDQLLSIRCQHQEQVEDLTASHDAALLEMENNHTVAITILQDDHDHKVQELMSTHELEKKELEENFEKLRLSLQDQVDTLTFQSQSLRDRARRFEEALRKNTEEQLEIALAPYQHLEEDMKSLKQVLEMKNQQIHEQEKKILELEKLAEKNIILEEKIQVLQQQNEDLKARIDQNTVVTRQLSEENANLQEYVEKETQEKKRLSRTNEELLWKLQTGDPTSPIKLSPTSPVYRGSSSGPSSPARVSTTPR
# partner: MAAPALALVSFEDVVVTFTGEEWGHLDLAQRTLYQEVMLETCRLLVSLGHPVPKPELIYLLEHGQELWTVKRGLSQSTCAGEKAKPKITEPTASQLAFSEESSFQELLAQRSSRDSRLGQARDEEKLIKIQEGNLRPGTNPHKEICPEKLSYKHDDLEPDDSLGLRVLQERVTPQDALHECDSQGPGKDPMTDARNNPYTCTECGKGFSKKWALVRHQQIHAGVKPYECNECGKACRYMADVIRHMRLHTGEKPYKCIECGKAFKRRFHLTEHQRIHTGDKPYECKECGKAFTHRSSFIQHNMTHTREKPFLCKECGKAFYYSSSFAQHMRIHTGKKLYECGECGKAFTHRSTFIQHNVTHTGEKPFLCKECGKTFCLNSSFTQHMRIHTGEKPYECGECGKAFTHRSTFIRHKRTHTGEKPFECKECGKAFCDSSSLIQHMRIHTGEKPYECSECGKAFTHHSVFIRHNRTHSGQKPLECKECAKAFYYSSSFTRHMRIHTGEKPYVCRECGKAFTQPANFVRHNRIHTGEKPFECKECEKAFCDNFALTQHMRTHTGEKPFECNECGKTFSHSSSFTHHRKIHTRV
# B5: Vacuolar protein sorting-associated protein 4B (Homo sapiens), O75351 (parent)
# chain: MSSTSPNLQKAIDLASKAAQEDKAGNYEEALQLYQHAVQYFLHVVKYEAQGDKAKQSIRAKCTEYLDRAEKLKEYLKNKEKKAQKPVKEGQPSPADEKGNDSDGEGESDDPEKKKLQNQLQGAIVIERPNVKWSDVAGLEGAKEALKEAVILPIKFPHLFTGKRTPWRGILLFGPPGTGKSYLAKAVATEANNSTFFSISSSDLVSKWLGESEKLVKNLFQLARENKPSIIFIDEIDSLCGSRSENESEAARRIKTEFLVQMQGVGVDNDGILVLGATNIPWVLDSAIRRRFEKRIYIPLPEPHARAAMFKLHLGTTQNSLTEADFRELGRKTDGYSGADISIIVRDALMQPVRKVQSATHFKKVRGPSRADPNHLVDDLLTPCSPGDPGAIEMTWMDVPGDKLLEPVVSMSDMLRSLSNTKPTVNEHDLLKLKKFTEDFGQEG
# B6: Adenosylhomocysteinase (Homo sapiens), P23526 (parent)
# chain: MSDKLPYKVADIGLAAWGRKALDIAENEMPGLMRMRERYSASKPLKGARIAGCLHMTVETAVLIETLVTLGAEVQWSSCNIFSTQDHAAAAIAKAGIPVYAWKGETDEEYLWCIEQTLYFKDGPLNMILDDGGDLTNLIHTKYPQLLPGIRGISEETTTGVHNLYKMMANGILKVPAINVNDSVTKSKFDNLYGCRESLIDGIKRATDVMIAGKVAVVAGYGDVGKGCAQALRGFGARVIITEIDPINALQAAMEGYEVTTMDEACQEGNIFVTTTGCIDIILGRHFEQMKDDAIVCNIGHFDVEIDVKWLNENAVEKVNIKPQVDRYRLKNGRRIILLAEGRLVNLGCAMGHPSFVMSNSFTNQVMAQIELWTHPDKYPVGVHFLPKKLDEAVAEAHLGKLNVKLTKLTEKQAQYLGMSCDGPFKPDHYRY
# partner: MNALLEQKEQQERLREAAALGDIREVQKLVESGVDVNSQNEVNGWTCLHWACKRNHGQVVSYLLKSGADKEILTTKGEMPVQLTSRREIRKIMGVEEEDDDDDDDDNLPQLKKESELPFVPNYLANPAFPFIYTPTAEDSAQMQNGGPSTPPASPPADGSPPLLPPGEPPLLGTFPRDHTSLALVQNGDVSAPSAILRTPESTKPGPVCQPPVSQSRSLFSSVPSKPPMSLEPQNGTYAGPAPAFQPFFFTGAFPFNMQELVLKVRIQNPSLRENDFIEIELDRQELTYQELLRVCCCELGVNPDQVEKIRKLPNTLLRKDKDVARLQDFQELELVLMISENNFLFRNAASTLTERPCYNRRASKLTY
# Variants of: B1
# Settings: with rel_human REL
row,Variant,effect of a mutation on the interaction
1,R159W,with no effect
2,Y102C,with no effect

# Variants of: B2
# Settings: with smip4_human SPMIP4, Q8N865
# Chain of smip4_human SPMIP4, Q8N865 (Q8N865 whole entry): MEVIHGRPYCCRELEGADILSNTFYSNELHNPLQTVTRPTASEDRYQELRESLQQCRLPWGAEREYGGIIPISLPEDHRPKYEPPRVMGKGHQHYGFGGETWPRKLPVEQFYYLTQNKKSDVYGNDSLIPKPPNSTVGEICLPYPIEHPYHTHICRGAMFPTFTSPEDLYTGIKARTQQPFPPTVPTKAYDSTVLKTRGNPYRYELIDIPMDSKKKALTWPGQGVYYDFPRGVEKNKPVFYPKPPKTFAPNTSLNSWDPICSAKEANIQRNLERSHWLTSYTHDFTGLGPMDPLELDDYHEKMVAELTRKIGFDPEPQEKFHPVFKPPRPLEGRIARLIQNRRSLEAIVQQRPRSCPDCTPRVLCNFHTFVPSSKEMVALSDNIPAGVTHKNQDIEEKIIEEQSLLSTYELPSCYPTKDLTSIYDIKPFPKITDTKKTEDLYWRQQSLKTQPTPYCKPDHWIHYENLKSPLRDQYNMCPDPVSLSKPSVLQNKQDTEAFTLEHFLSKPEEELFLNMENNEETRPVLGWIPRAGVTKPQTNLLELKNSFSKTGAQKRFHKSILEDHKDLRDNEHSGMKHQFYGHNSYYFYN
row,Variant,effect of a mutation on the interaction
1,D484N,with no effect

# Variants of: B3
# Settings: with tri27_human TRIM27, P14373
row,Variant,effect of a mutation on the interaction
1,D56E,disrupting interaction strength

# Variants of: B4
# Settings: with zn599_human ZNF599, Q96NL3
row,Variant,effect of a mutation on the interaction
1,A89V,with no effect

# Variants of: B5
# Settings: with anchr_human ZFYVE19, Q96K21
# Chain of anchr_human ZFYVE19, Q96K21 (Q96K21 whole entry): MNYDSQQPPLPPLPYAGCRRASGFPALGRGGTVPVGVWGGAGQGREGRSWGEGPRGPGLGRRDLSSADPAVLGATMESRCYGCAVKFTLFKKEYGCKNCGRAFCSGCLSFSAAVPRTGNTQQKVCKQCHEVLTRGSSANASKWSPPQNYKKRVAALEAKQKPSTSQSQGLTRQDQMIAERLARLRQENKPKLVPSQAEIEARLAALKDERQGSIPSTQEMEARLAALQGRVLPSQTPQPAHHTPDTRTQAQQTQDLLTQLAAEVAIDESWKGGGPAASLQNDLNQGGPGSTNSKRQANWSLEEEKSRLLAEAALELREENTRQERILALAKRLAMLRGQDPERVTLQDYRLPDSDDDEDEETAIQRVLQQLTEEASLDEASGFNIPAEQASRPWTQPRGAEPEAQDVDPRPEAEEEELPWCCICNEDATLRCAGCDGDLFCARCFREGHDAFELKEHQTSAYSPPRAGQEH
row,Variant,effect of a mutation on the interaction
1,I58M,with no effect

# Variants of: B6
# Settings: with anr40_human ANKRD40, Q6AI12
row,Variant,effect of a mutation on the interaction
1,I92V,with no effect
